Results as given in publication PMC12006399, “RNase1-driven ALK-activation is an oncogenic driver and therapeutic target in non-small cell lung cancer” (Signal Transduction and Targeted Therapy, 2025).
Values belong to the molecule of their own block, whether it stands above or below them.

Assays:
EphA4 (Homo sapiens) = EphA4 (Homo sapiens) (UniProt P54764); settings: cited from earlier work
ALK (Homo sapiens) = ALK (Homo sapiens) (UniProt Q9UM73); settings: cited from earlier work
[1] = molecular target: T1, endogenous wild-type ALK in H1299 human lung cancer cells (human (endogenous in H1299), UniProt Q9UM73 19-1620); experiment: ELISA; ALK captured from H1299 lysate on plate-bound ALK antibody (3 µg/ml); recombinant RNase1 at different concentrations in lysis buffer, overnight at 4 °C; streptavidin-HRP, TMB, OD 450 nm; Kd by GraphPad Prism; settings: one partner purified
T1 construct: ALK receptor tyrosine kinase, wild type, endogenous in H1299 human lung cancer cells; also called WT ALK; source: endogenous, H1299 lysate; endogenous, in H1299 cells
T1 sequence (Q9UM73 19-1620): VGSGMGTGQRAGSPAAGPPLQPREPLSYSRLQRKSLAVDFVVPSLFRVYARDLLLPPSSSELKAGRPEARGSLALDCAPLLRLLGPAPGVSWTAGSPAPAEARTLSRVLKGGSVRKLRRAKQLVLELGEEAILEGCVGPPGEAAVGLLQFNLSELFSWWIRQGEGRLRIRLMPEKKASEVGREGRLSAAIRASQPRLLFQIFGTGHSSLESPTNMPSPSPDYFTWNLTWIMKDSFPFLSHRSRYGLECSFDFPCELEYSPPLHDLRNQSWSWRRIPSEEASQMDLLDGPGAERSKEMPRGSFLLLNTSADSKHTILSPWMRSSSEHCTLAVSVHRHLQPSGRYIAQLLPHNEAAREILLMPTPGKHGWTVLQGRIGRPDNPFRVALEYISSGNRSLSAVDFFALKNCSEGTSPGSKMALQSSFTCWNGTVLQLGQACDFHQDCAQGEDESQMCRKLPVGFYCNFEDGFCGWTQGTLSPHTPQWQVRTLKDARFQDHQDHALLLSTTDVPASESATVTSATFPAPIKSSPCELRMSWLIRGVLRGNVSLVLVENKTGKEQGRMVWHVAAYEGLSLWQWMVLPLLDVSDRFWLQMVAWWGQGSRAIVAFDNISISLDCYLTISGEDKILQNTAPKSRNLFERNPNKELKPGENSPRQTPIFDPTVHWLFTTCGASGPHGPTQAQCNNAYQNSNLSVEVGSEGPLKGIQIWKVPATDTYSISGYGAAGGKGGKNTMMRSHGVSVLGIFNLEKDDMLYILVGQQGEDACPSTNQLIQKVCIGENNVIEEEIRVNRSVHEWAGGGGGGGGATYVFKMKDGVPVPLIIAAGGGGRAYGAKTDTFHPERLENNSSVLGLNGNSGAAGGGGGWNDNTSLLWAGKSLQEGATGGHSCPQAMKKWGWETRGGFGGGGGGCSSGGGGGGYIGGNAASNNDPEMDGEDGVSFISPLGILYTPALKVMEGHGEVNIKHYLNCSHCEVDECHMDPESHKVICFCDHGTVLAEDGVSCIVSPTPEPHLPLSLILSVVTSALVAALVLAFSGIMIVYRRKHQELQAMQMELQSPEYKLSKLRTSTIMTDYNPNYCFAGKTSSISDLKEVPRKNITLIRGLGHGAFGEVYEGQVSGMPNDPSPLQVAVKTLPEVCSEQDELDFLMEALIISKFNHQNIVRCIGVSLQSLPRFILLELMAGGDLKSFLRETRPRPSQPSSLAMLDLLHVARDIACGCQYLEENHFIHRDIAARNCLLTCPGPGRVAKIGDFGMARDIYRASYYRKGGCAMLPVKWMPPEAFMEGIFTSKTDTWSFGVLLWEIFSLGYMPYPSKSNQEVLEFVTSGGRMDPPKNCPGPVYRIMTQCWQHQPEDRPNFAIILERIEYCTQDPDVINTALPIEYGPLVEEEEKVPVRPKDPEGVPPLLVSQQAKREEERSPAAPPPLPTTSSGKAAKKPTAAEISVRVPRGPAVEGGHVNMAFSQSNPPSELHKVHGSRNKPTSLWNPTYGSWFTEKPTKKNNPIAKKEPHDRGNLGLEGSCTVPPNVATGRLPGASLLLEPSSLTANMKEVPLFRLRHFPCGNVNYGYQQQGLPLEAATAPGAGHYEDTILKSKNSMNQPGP

Chain of ALK (Homo sapiens) (Q9UM73 19-1038): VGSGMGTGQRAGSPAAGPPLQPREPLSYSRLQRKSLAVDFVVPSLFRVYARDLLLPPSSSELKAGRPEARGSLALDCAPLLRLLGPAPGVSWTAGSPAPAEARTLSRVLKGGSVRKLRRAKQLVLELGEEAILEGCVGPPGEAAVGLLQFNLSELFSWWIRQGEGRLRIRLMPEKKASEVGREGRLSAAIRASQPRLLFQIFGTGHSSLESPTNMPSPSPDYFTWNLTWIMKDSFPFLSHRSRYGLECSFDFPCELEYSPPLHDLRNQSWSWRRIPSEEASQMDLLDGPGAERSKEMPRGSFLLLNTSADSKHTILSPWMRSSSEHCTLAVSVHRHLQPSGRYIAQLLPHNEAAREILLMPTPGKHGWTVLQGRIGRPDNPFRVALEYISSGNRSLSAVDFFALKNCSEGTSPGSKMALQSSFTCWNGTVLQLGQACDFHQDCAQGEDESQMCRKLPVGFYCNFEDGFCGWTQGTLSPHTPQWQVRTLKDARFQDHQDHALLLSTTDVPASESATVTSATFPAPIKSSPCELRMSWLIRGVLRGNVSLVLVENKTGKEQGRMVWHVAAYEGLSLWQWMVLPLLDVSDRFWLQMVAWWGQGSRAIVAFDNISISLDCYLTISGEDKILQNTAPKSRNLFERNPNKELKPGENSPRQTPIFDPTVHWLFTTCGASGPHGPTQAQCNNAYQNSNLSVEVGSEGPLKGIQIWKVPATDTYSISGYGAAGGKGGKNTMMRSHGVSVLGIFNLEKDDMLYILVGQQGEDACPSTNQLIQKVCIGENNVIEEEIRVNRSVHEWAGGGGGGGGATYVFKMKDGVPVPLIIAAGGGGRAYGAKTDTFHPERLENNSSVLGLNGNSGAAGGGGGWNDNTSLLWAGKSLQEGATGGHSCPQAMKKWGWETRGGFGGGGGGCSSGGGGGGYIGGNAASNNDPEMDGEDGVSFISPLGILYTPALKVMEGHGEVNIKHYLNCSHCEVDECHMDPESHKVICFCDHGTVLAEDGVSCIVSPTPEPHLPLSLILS
Chain of EphA4 (Homo sapiens) (P54764 20-547): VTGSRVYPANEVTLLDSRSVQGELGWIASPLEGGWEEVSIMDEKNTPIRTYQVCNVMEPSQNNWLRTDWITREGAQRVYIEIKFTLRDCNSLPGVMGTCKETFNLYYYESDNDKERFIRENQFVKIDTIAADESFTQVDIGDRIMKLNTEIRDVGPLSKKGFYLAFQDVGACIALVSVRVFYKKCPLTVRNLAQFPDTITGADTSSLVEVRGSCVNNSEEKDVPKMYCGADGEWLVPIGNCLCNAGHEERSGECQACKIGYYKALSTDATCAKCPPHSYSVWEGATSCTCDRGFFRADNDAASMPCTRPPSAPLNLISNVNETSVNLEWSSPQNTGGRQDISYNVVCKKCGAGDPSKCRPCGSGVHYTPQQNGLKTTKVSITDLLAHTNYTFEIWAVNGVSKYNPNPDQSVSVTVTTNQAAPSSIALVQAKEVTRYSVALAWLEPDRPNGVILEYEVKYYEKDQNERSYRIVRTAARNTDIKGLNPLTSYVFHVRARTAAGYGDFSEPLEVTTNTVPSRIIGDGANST

Molecule: RNase1 (from UniProt P07998)
Kd (EphA4 (Homo sapiens)): 92.4 nM

Molecule: ALKAL2 (from UniProt Q6UX46)
Kd (ALK (Homo sapiens)): 40 nM

Kd [1]: 43 nM
B1: recombinantly purified 6x N-terminal His-tagged RNase1 (ligand, human, UniProt P07998 29-156, looked up)
chain: KESRAKKFQRQHMDSDSSPSSSSTYCNQMMRRRNMTQGRCKPVNTFVHEPLVDVQNVCFQEKVTCKNGQGNCYKSNSSMHITDCRLTNGSRYPNCAYRTSPKERHIIVACEGSPYVPVHFDASVEDST
notes: human secretory ribonuclease 1 (RNase1); cDNA cloned into the prokaryotic vector PSJ3 with N-terminal 6His tag; a bacterial construct is likely to lack the signal peptide (surmise); also called R1; human secretory ribonuclease 1; source: E. coli BL21, purified (HisTrap column); not shown: His6, N-terminal, kept
